Source: patent publication US20120283173A1 (UNIVERSITATSKLINIKUM HAMBURG EPPENDORF, published 2012)

T1: Pseudomonas aeruginosa lectin PA-IL (Pseudomonas aeruginosa, UniProt Q05097 2-122)
T1 sequence (looked up): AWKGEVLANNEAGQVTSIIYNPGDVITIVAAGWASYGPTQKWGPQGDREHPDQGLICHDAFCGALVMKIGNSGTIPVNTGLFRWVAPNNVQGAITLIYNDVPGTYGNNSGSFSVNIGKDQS


Key:
[1] = molecular target: T1, Pseudomonas aeruginosa lectin PA-IL; assay: cell-based or functional assay
[2] = molecular target: Pseudomonas aeruginosa lectin PA-IIL (Pseudomonas aeruginosa); assay: cell-based or functional assay

Binder	IC50 of inhibition of the PA-IL-induced decrease of ciliary beat frequency (CBF) [1]	IC50 of inhibition of the PA-IIL-induced decrease of ciliary beat frequency (CBF) [2]
FLHTRLFV [HNK-1 mimetic peptide pHNK-1]	484 µM	968 µM
TVFHFRLL [peptide sHNK-1 (scrambled version of pHNK-1)]	968 µM	
